Data: US20090214524A1

Target: Bub3 (UniProt O43684)
Assay: cell-based or functional assay

Chain of UniProt O43684 (O43684 whole entry): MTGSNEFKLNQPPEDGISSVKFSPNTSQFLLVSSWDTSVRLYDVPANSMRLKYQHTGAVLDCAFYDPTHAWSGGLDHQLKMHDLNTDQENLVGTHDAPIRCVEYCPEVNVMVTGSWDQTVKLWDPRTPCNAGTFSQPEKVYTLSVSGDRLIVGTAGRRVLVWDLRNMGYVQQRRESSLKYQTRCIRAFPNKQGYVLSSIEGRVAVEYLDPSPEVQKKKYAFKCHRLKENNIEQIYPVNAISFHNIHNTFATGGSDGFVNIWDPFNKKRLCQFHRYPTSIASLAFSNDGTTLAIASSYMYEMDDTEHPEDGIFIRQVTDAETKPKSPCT

Substance: myc-tagged siRNA-resistant wild type BubR1 (pcDNA3-myc-BubR1^ΔsiRNA) (from UniProt O60566 1-1050)
- restoration of colcemid-mediated mitotic checkpoint arrest (BrdU incorporation) in T98G cells depleted of endogenous BubR1: 50%
